The target in the series is acetylcholinesterase (AChE) (UniProt O42275 24-633). In words: single-molecule nanopore; 100 pM lambda DNA carrier also carrying TBA probe and thrombin, 100 mM KCl; Nanopore: 100 mM KCl Tris-EDTA, pH 8, 45 min incubation; EMSA thrombin: 140 mM NaCl, 20 mM MgCl2, 20 mM PBS pH 7.4, 45 min; EMSA AChE: 2.7 mM KCl, 4 mM MgCl2, PBS pH 7.4, 1 h; temperature not stated. The settings on record: protein: commercial; chain copies: 4; free oligo in EMSA. (In general: In EMSA bound probe runs differently from free probe, usually more slowly.)

This is an account of results in article PMC5691071, “Single molecule multiplexed nanopore protein screening in human serum using aptamer modified DNA carriers”.

acetylcholinesterase (AChE), sequence (O42275 24-633): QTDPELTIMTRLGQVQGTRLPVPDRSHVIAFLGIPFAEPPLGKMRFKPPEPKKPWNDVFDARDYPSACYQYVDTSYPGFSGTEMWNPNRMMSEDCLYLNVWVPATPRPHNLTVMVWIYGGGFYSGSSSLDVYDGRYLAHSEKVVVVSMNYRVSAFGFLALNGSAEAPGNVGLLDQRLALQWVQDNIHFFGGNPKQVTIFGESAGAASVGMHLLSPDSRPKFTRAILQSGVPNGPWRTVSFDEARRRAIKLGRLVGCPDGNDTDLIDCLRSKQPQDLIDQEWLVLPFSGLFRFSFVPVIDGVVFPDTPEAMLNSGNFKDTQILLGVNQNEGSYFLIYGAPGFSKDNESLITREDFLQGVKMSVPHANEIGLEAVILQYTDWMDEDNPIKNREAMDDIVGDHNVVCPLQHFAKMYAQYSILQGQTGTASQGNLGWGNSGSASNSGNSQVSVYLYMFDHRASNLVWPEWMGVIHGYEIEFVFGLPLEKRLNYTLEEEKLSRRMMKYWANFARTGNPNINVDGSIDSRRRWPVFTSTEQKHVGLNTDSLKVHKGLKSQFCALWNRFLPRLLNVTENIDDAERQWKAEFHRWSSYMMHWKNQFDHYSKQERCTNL

B1: Target ii AChE probe (75 nt) (mixed)
DNA: GGTTGACTGTAGCTCTGGCAGACGTAGTGTGAAGGTACCGGGCGGCGACCTAAGGTGTCGTGCGTAAGTTTTTAA
Turning to B1, the binding result was “binds”.
